Article doi:10.1101/671156

What was measured:
[1] = biological target: CoAA YxxQ repeats, 307-545 (UniProt Q96PK6); assay: plate-coated GST-YxxQ, biotin peptide, streptavidin-HRP; conditions: reference: unphosphorylated CTD peptide
[2] = biological target: biotin-labeled YxxQ diheptad peptide (human) (UniProt Q96PK6); assay: ELISA; conditions: domain or fragment

CoAA YxxQ repeats, 307-545, sequence (Q96PK6 whole entry, looked up, the tested form may be a part): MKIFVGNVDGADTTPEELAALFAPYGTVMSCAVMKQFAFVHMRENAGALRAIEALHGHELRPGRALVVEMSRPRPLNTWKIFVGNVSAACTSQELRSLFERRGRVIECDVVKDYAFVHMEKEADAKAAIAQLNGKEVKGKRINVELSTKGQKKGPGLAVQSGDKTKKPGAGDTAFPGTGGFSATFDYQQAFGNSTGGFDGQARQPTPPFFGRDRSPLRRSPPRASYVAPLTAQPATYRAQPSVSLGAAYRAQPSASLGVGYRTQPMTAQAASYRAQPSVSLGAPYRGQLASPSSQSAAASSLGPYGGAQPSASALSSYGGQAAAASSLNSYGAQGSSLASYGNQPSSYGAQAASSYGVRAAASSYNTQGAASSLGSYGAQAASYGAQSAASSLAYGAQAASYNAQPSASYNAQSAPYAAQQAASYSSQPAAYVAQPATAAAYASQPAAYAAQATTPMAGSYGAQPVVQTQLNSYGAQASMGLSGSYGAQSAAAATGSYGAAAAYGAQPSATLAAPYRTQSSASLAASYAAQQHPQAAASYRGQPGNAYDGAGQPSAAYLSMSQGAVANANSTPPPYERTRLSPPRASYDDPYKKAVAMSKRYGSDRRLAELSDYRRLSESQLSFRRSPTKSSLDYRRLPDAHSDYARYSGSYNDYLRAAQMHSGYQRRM
GST-CTD-AA (not phosphorylated, coated on plate), sequence (P04050 whole entry, looked up): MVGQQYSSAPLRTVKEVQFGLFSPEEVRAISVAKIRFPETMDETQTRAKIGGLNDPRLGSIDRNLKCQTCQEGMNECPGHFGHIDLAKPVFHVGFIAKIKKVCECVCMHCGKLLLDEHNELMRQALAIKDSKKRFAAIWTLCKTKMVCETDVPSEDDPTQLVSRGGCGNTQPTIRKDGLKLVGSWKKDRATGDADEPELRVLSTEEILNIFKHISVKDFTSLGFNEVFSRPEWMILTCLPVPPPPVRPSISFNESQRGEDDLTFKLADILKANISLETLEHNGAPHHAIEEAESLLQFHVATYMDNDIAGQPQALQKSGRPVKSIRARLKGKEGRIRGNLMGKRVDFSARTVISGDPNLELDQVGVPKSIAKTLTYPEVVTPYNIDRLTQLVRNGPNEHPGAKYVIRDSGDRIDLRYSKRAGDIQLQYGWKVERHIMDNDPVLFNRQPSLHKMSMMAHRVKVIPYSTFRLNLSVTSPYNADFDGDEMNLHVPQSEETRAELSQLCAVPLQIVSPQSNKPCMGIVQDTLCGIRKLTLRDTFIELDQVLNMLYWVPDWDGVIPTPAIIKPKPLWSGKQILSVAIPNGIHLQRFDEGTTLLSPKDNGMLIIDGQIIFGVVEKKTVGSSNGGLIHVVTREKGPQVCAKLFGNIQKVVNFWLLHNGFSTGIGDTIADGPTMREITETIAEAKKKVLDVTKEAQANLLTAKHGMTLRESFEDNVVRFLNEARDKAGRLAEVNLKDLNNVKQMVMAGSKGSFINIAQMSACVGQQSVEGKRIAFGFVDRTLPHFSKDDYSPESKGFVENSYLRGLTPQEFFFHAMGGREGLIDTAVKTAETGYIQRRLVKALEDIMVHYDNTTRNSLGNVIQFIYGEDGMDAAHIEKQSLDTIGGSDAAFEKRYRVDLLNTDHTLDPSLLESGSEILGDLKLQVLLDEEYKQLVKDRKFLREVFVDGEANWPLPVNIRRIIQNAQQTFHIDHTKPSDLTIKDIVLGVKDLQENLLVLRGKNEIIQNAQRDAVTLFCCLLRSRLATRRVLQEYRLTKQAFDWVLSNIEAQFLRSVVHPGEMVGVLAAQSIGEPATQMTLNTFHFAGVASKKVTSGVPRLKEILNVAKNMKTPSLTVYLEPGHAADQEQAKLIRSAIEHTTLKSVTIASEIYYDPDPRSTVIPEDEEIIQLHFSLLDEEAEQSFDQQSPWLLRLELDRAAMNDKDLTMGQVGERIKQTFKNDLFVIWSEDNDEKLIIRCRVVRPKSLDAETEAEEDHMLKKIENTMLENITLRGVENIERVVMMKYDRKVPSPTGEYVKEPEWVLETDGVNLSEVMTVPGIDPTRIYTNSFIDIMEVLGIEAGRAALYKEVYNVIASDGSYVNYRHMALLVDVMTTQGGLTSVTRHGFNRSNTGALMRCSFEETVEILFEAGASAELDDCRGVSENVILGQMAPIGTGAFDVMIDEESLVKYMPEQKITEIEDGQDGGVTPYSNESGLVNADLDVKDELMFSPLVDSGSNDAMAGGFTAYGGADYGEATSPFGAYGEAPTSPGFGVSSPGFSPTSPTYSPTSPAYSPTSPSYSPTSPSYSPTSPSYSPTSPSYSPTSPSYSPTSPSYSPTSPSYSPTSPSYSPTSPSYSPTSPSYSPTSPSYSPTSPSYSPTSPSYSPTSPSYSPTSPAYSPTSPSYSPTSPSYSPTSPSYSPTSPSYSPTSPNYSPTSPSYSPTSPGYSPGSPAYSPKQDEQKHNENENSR

Question: Which EC50 ([1]; sites S5) does the source give for “RNA polymerase II largest subunit CTD pSer5 CTD peptide” here?
Answer: The EC50 was “stronger; reference 1066”.

Question: “GST-CTD-AA (not phosphorylated, coated on plate) (from UniProt P04050)” was tested. Which EC50 [2] did it give?
Answer: Its EC50 is 2.43 µM.

Question: For “RNA polymerase II largest subunit CTD pSer2 CTD peptide”, which EC50 ([1]; sites S2) is on record?
Answer: The EC50 was “stronger; reference 1066”.
